{"source": "the RNAGym collection of RNA variant scans (doi:10.1093/nar/gkz1192)", "parents": {"B1": {"name": "CPEB3 Ribozyme (parent)", "chain": "UAACAGGGGGCCACAGCAGAAGCGUUCACGUCGCAGCCCCUGUCAGAUUCUGGUGAAUCUGCGAAUUCUGCUGUAUAUCUC"}}}
{"variants_of": "B1", "assay": "self-cleavage, relative activity (ratio to wild type); higher = more cleavage; in vitro, sequencing", "summary_of_the_method": "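After error-prone PCR and barcoding, CPEB3 ribozyme mutant libraries were transcribed with T7 RNA polymerase at 37°C for 5 hours, then given 15 min with DNase I before an EDTA stop, and they cleaved during both steps. Reverse transcription with template switching preceded Illumina sequencing. Relative activity divides a variant's cleaved/total read fraction by the unmutated ribozyme's. At least 5 reads were required per variant, and three batches were averaged.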"}
{"variant": "A5U A28U", "self-cleavage": 1.12}
{"variant": "A5U A28G", "self-cleavage": 0.83}
{"variant": "A5U A28C", "self-cleavage": 0.77}
{"variant": "A5U G46A", "self-cleavage": 0.36}
{"variant": "A5G U48A", "self-cleavage": 0.45}
{"variant": "A5G U48G", "self-cleavage": 0.1}
{"variant": "A5G U48C", "self-cleavage": 0.57}
{"variant": "A5U U72G", "self-cleavage": 0.94}
{"variant": "A5U U72A", "self-cleavage": 0.71}
{"variant": "A5U U72C", "self-cleavage": 1.14}
{"variant": "A5U A65U", "self-cleavage": 0.28}
{"variant": "A5U A65G", "self-cleavage": 0.55}
{"variant": "A5G G16A", "self-cleavage": 0.57}
{"variant": "A5G G16U", "self-cleavage": 0.54}
{"variant": "A5U U48C", "self-cleavage": 0.66}
{"variant": "G6A A45U", "self-cleavage": 0.38}
{"variant": "G6A A45G", "self-cleavage": 0.14}
{"variant": "A5G G61A", "self-cleavage": 0.49}
{"variant": "A5U G16U", "self-cleavage": 0.66}
{"variant": "A5U G16A", "self-cleavage": 1.05}
{"variant": "A5G U72A", "self-cleavage": 0.48}
{"variant": "A5G U72C", "self-cleavage": 0.77}
{"variant": "A5G U72G", "self-cleavage": 0.79}
{"variant": "A5U C23G", "self-cleavage": 0.08}
{"variant": "A5U C23U", "self-cleavage": 0.25}
{"variant": "A5U C62U", "self-cleavage": 0.22}
{"variant": "A5U C62G", "self-cleavage": 0.49}
{"variant": "A5U U49C", "self-cleavage": 0.55}
{"variant": "A5U U49A", "self-cleavage": 0.44}
{"variant": "A5G G6U", "self-cleavage": 0.23}
{"variant": "A5G G6A", "self-cleavage": 0.29}
{"variant": "A5U U69C", "self-cleavage": 0.74}
{"variant": "A5U U69A", "self-cleavage": 0.81}
{"variant": "A5U C32U", "self-cleavage": 0.31}
{"variant": "A5U C32G", "self-cleavage": 0.16}
{"variant": "A5U C32A", "self-cleavage": 0.32}
{"variant": "A5G A35G", "self-cleavage": 1.18}
{"variant": "A5G A35U", "self-cleavage": 0.36}
{"variant": "A5G A35C", "self-cleavage": 0.85}
{"variant": "A5G C29G", "self-cleavage": 0.57}
{"variant": "A5G C29U", "self-cleavage": 0.26}
{"variant": "A5G U74A", "self-cleavage": 1.03}
{"variant": "A5G U74C", "self-cleavage": 1.01}
{"variant": "A5G U74G", "self-cleavage": 1.41}
{"variant": "A5U C71A", "self-cleavage": 0.48}
{"variant": "A5U C71U", "self-cleavage": 0.79}
{"variant": "A5U G55U", "self-cleavage": 1.15}
{"variant": "A5G A56G", "self-cleavage": 0.39}
{"variant": "A5G A56U", "self-cleavage": 0.43}
{"variant": "A5U G33A", "self-cleavage": 0.27}
{"variant": "A5U G33C", "self-cleavage": 0.16}
{"variant": "A5U A21U", "self-cleavage": 0.53}
{"variant": "A5U A21G", "self-cleavage": 0.77}
{"variant": "A5U A21C", "self-cleavage": 0.29}
{"variant": "A5U G30A", "self-cleavage": 0.27}
{"variant": "A5U G30U", "self-cleavage": 0.26}
{"variant": "A5U G30C", "self-cleavage": 0.4}
{"variant": "A5G G33A", "self-cleavage": 0.24}
{"variant": "A5G G33U", "self-cleavage": 0.43}
{"variant": "A5G G33C", "self-cleavage": 0.38}
{"variant": "A5U U67G", "self-cleavage": 0.54}
{"variant": "A5U U67C", "self-cleavage": 0.29}
{"variant": "A5U U67A", "self-cleavage": 0.63}
{"variant": "A5G A28U", "self-cleavage": 0.55}
{"variant": "A5G A28C", "self-cleavage": 0.61}
{"variant": "A5G A28G", "self-cleavage": 0.48}
{"variant": "A5U C17G", "self-cleavage": 0.26}
{"variant": "A5U C17U", "self-cleavage": 0.73}
{"variant": "A5G U66C", "self-cleavage": 0.38}
{"variant": "A5G U66A", "self-cleavage": 0.23}
{"variant": "A5G U66G", "self-cleavage": 0.44}
{"variant": "A5G G63U", "self-cleavage": 0.95}
{"variant": "A5G G63A", "self-cleavage": 0.61}
{"variant": "A5G G63C", "self-cleavage": 0.5}
{"variant": "G6A A15G", "self-cleavage": 0.36}
{"variant": "G6A A15C", "self-cleavage": 0.42}
{"variant": "G6A A15U", "self-cleavage": 0.18}
{"variant": "A5G G7A", "self-cleavage": 0.6}
{"variant": "A5G G7C", "self-cleavage": 0.5}
{"variant": "A5G G7U", "self-cleavage": 0.39}
{"variant": "A5U U80C", "self-cleavage": 1.12}
{"variant": "A5U U80A", "self-cleavage": 1.32}
{"variant": "A5U U80G", "self-cleavage": 1.14}
{"variant": "A5G C32A", "self-cleavage": 0.28}
{"variant": "A5G C32G", "self-cleavage": 0.39}
{"variant": "A5G C32U", "self-cleavage": 0.48}
{"variant": "A5G C37U", "self-cleavage": 0.63}
{"variant": "A5G C12A", "self-cleavage": 0.4}
{"variant": "A5G C12U", "self-cleavage": 1.12}
{"variant": "A5G G30U", "self-cleavage": 0.11}
{"variant": "A5G G30A", "self-cleavage": 0.51}
{"variant": "A5U C27G", "self-cleavage": 0.21}
{"variant": "A5U C27U", "self-cleavage": 0.22}
{"variant": "A5U C81U", "self-cleavage": 1.17}
{"variant": "A5U C81G", "self-cleavage": 1.29}
{"variant": "A5U C81A", "self-cleavage": 1.24}
{"variant": "A5U A77G", "self-cleavage": 1.09}
{"variant": "A5U A77U", "self-cleavage": 1.16}
{"variant": "A5G U54A", "self-cleavage": 0.82}
{"variant": "A5G U54G", "self-cleavage": 0.47}
{"variant": "A5G U54C", "self-cleavage": 0.64}
{"variant": "A5G C50U", "self-cleavage": 0.5}
{"variant": "A5G A65C", "self-cleavage": 0.25}
{"variant": "A5G A65G", "self-cleavage": 0.39}
{"variant": "A5G A65U", "self-cleavage": 0.19}
{"variant": "A5U A15G", "self-cleavage": 0.93}
{"variant": "A5U A15U", "self-cleavage": 1.1}
{"variant": "A5U A15C", "self-cleavage": 1.18}
{"variant": "A5G C81A", "self-cleavage": 1.1}
{"variant": "A5U C12U", "self-cleavage": 1.14}
{"variant": "A5G C23G", "self-cleavage": 0.61}
{"variant": "A5G C23U", "self-cleavage": 0.36}
{"variant": "A5U G53A", "self-cleavage": 1.14}
{"variant": "A5U C79U", "self-cleavage": 1.24}
{"variant": "A5U C68U", "self-cleavage": 0.99}
{"variant": "A5U C68A", "self-cleavage": 0.29}
{"variant": "A5G G8U", "self-cleavage": 0.46}
{"variant": "A5G G8A", "self-cleavage": 0.23}
{"variant": "A5G G46U", "self-cleavage": 0.4}
{"variant": "A5U C38A", "self-cleavage": 0.34}
{"variant": "A5G A77G", "self-cleavage": 0.71}
{"variant": "A5G A77U", "self-cleavage": 0.78}
{"variant": "A5G A21C", "self-cleavage": 0.39}
{"variant": "A5G A21G", "self-cleavage": 0.43}
{"variant": "A5G A21U", "self-cleavage": 0.33}
{"variant": "A5G U31G", "self-cleavage": 0.47}
{"variant": "A5G U31A", "self-cleavage": 0.41}
{"variant": "A5G U31C", "self-cleavage": 0.48}
{"variant": "A5G C14U", "self-cleavage": 0.8}
{"variant": "A5U C40U", "self-cleavage": 0.78}
{"variant": "A5U C40A", "self-cleavage": 0.09}
{"variant": "A5U C50A", "self-cleavage": 1.01}
{"variant": "A5G A75G", "self-cleavage": 0.49}
{"variant": "A5G A75C", "self-cleavage": 0.57}
{"variant": "A5G A75U", "self-cleavage": 0.83}
{"variant": "A5U U74C", "self-cleavage": 1.14}
{"variant": "A5U U74A", "self-cleavage": 1.24}
{"variant": "G6A A56G", "self-cleavage": 0.28}
{"variant": "A5G G24U", "self-cleavage": 0.24}
{"variant": "A5G G24C", "self-cleavage": 0.89}
{"variant": "A5G G70U", "self-cleavage": 0.41}
{"variant": "A5G G70C", "self-cleavage": 0.25}
{"variant": "A5G G70A", "self-cleavage": 0.32}
{"variant": "A5G G52A", "self-cleavage": 1}
{"variant": "A5G G52U", "self-cleavage": 0.73}
{"variant": "A5U C39U", "self-cleavage": 0.95}
{"variant": "A5U G9U", "self-cleavage": 0.34}
{"variant": "A5U G9A", "self-cleavage": 0.45}
{"variant": "A5G U26A", "self-cleavage": 0.56}
{"variant": "A5G U26G", "self-cleavage": 0.55}
{"variant": "A5G U26C", "self-cleavage": 0.44}
{"variant": "G6A A35U", "self-cleavage": 0.26}
{"variant": "G6A A35G", "self-cleavage": 0.86}
{"variant": "G6A A35C", "self-cleavage": 0.3}
{"variant": "A5G G73U", "self-cleavage": 1.17}
{"variant": "A5G G73A", "self-cleavage": 1.17}
{"variant": "A5G G73C", "self-cleavage": 1.25}
{"variant": "A5G U69C", "self-cleavage": 0.37}
{"variant": "A5G U69A", "self-cleavage": 0.49}
{"variant": "A5G U69G", "self-cleavage": 0.49}
{"variant": "A5U C59G", "self-cleavage": 0.37}
{"variant": "A5U C59A", "self-cleavage": 0.43}
{"variant": "A5U U66G", "self-cleavage": 0.93}
{"variant": "A5U U66C", "self-cleavage": 0.45}
{"variant": "A5U U66A", "self-cleavage": 0.46}
{"variant": "A5U U26C", "self-cleavage": 0.72}
{"variant": "A5U U26A", "self-cleavage": 1.05}
